Drawing on article doi:10.1101/2021.04.07.438776, this text covers stoichiometry N for one substance.

This assay has as its target N-terminal 6X-His-Tagged Caspar (Drosophila). Kind of assay: SEC. Background: Size exclusion chromatography separates by hydrodynamic size, large species first.

As usually defined, the stoichiometry N is a count of units in the complex or per binding partner. The substance “N-terminal 6X-His-Tagged Caspar (natural protein)” returned a stoichiometry N of 2.
